Results on 1 substance are retold here after patent US11497788B2, “Supramolecular glycosaminoglycans” (Northwestern University, priority 2015, dated 2022).

The target of one assay is T1, noggin (Mus musculus, UniProt P97466).
T1 construct: purchased PeproTech; host or cells: E. coli
T1 sequence (P97466 with tags, fused parts or gaps): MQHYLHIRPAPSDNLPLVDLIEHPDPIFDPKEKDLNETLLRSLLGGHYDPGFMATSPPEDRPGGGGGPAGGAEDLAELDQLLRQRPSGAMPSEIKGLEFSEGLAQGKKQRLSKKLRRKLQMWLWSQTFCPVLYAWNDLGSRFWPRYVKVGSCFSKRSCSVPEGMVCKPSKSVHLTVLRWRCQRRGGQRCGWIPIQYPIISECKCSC
Kind of assay: Noggin inhibition of BMP-2 activity in C2C12 cells. It counts as cell-based, murine. To be noted: during osteoblast differentiation of C2C12. On the procedure:
(§1) C2C12 Cell Culture: C2C12 mouse myoblasts (ATCC) were maintained in Dulbecco's Modified Eagle's Medium with high glucose and L-glutamine (DMEM, ATCC), supplemented with 100 U/mL of penicillin and 100 μg/mL streptomycin (P/S, Life Technologies) and 10% heat inactivated FBS (Life Technologies), and passaged at 80-90% confluence. Media was changed every 2 days. Passages 3 to 8 were used for experiments. Cells were grown at 37° C., 5% CO2 in a humidified atmosphere. Cells were detached following a 3 minute incubation at 37° C. with 0.05% Trypsin-EDTA (Life Technologies), then resuspended in DMEM (10% FBS). Unless stated otherwise, cells were seeded at 75,000 cells/mL (400 μL/well in a 48-well plate), and allowed to attach for a minimum of 3 hours prior to experiments.
(§2) C2C12 Osteoblast Differentiation: PA samples were thermally annealed as described for Cryo-TEM. PA solutions were spun down, pipetted for homogeneous mixing, then diluted to 1 mM with DMEM (no FBS). […] Cells were cultured for 3 days without changing the media, and osteoblast differentiation was assessed.
(§3) Alkaline Phosphatase Activity: Alkaline phosphatase (ALP) activity was measured as a marker of osteoblast differentiation (ref. 38; incorporated by reference in its entirety). […] The ALP activity was assessed by reading the OD at 630 nm with Cytation3 microplate reader (BioTek). […]

Assay [1] relates to BMP-2, BMP-4, noggin, Shh, VEGF, FGF-1, FGF-2. In words: Surface plasmon resonance (SPR) binding to immobilized heparin binding GFs. The settings on record: analytes 50-500 nM; GFs immobilized on alginate surface; 25° C. More on the design: species or system human (Noggin murine). On the procedure:
Surface Plasmon Resonance: The binding interactions between PAs (analytes) and growth factors (ligands) were analyzed via surface plasmon resonance (SPR) using a ProteON XPR36 system (Bio-Rad Laboratories). PA samples were thermally annealed as described for Cryo-TEM. PA solutions were spun down, pipetted for homogeneous mixing, and sequentially diluted to appropriate concentrations using Tween buffer (Milli-Q water, 0.05% Tween-20). Lyophilized powders of GFs were reconstituted to 5 μM without any carrier proteins according to the manufacturer's instructions. BMP-2, BMP-4, Shh, VEGF, and FGF-2 were further diluted to 200 nM in ProteOn Acetate Buffer pH 5.5, while FGF-1 was diluted to 200 nM in ProteOn Acetate Buffer pH 4.5. Noggin was diluted to 300 nM in ProteOn Acetate Buffer pH 5.5.
GFs were immobilized on a ProteOn GLC-Chip via amino coupling as described previously, with slight modifications (37). First, the alginate surface was activated with a freshly prepared mixture of 20 mM 1-Ethyl-3-[3-dimethylaminopropyl]carbodiimide hydrochloride (EDC) and 5 mM N-hydroxysulfosuccinimide (Sulfo-NHS) in Milli-Q water (vertical flow cells, 30 μL/min, 3 min). Following, GFs were immobilized on vertical flow cells 1 to 5 by perfusing a freshly prepared 200 nM (or 300 nM) solution over the activated alginate surface (30 μL/min, 5 min). Blank buffer was perfused on vertical cell 6 as a reference. The remaining esters were deactivated with 1 M ethanolamine (30 μL/min, 3 min). The association and dissociation phases were performed at 25° C. in Tween buffer. Prior to each analyte injection, the horizontal flow cells 1 to 6 were regenerated with 10 mM NaOH (100 μL/min, 30 sec) and washed once with Tween buffer (30 μL/min, 3 min). Varied analyte concentrations were injected to horizontal flow cells 1 to 5, with flow cell 6 as a reference (30 μL/min, 5 min), followed by dissociation with Tween buffer (30 μL/min, 10 min). For analysis, SPR sensorgram from the reference flow cell was subtracted from all measurement flow cells. Interaction data were evaluated using the BIAEvaluation 4.1 software. […]

In a further assay the target is T2, BMP-2 (Homo sapiens, UniProt P12643).
T2 construct: purchased Medtronic Sofamor Danek (Minneapolis, Minn.)
T2 sequence (P12643 283-396): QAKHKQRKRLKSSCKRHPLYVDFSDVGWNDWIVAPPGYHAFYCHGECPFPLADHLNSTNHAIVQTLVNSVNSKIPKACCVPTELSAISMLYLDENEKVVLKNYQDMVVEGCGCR
Kind of assay: Confocal fluorescence imaging of Cy5-labeled BMP-2 with PA nanofibers. It counts as binding. The settings on record: co-assembled with Cy3-PA 5 mol %; mixed 24 h. On the procedure: Confocal Fluorescence Imaging: PA 1, PA 4, and Cy3-PA were dissolved to 6.6 mM in saline with 6.6 mM CaCl2, pH 7.2. […] Following, PA solutions were mixed with Cy5-BMP-2 (57 μM) at 10:1 vol. ratio to yield [PA]=6 mM and [BMP-2]=5.2 μM, and incubated overnight. For confocal imaging, 20 μl of the solutions containing Cy5-labeled protein and Cy3-Labeled PA nanofibers were coverslipped in IMMU-MOUNT (Termo Scientific) and visualized using a Nikon A1R confocal laser-scanning microscope with GaAsP detectors.

In assay [2] the test system is EHBMP-2 (BMP-2 mutated at the N-terminal heparin-binding domain) in C2C12 cells. In words: ALP activity in C2C12 cells with mutant EHBMP-2. It counts as cell-based, mouse. To be noted: mutant BMP-2 with negligible heparin binding. On the procedure:
as §1, §2, §3

As for “3,4,6S-GlcNAc PA (VVAAEEK) [PA 1, glycosylated peptide amphiphile: Alkyne PA click-conjugated with trisulfated monosaccharide 1]”, in the assay with noggin, the “protection of BMP-2 from noggin antagonist” value is “successfully protected”. Moreover, the “binding to heparin binding GFs (SPR)” value in assay [1] is given as “strong concentration-dependent binding”. Further, the “colocalization of Cy5-labeled BMP-2 with PA nanofibers” value with BMP-2 is reported as “strong colocalization”. The “ALP expression using EHBMP-2” value in assay [2] is “minimally affected”.
